# Measurements: patent publication US20210373021A1
# Target: SNAP-25 Reporter 1 (human) (UniProt P60880)
# Assay: cell-based or functional assay
# UniProt P60880, sequence (P60880 other isoform, or with tags, fused parts or gaps limits assumed): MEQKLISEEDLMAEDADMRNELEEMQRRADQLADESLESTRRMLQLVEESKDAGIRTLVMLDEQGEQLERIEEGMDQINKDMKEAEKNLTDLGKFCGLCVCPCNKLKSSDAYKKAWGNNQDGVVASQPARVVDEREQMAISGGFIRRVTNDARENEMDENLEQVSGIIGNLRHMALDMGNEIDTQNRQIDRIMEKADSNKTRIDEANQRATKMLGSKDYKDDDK
substance,measurement,value
Galderma BoNT/A drug product QM-1114 (from UniProt P0DPI0 2-1296) (enzyme),"EC50 of SNAP-25 cleavage (Western blot), 4 hours at ambient temperature",844 U/ml
same,"EC50 of SNAP-25 cleavage (Western blot), 22 hours at 37° C.",687 U/ml
same,"EC50 of SNAP-25 cleavage (Western blot), 22 hours at room temperature",204 U/ml
same,"EC50 of uncleaved product in RLU (sandwich ELISA), 22 hours at 37° C.",112 U/ml
same,"EC50 of uncleaved product in RLU (sandwich ELISA), 22 hours at room temperature",55.3 U/ml
